From article PMC4519330, “An Internally Translated MAVS Variant Exposes Its Amino-terminal TRAF-Binding Motifs to Deregulate Interferon Induction” (PLoS Pathogens, 2015)

Molecular target: the molecule itself
Experiment: co-IP; 293T cells co-transfected; lysates in NP40 buffer (50 mM Tris-HCl pH 7.4, 150 mM NaCl, 5 mM EDTA, 1% NP40) precipitated with anti-Flag agarose at 4°C for 4-6 hours; immunoblot

B1: Flag-tagged MAVS50 (natural protein, human, UniProt Q7Z434 142-540, looked up)
chain: MPVQETQAPESPGENSEQALQTLSPRAIPRNPDGGPLESSSDLAALSPLTSSGHQEQDTELGSTHTAGATSSLTPSRGPVSPSVSFQPLARSTPRASRLPGPTGSVVSTGTSFSSSSPGLASAGAAEGKQGAESDQAEPIICSSGAEAPANSLPSKVPTTLMPVNTVALKVPANPASVSTVPSKLPTSSKPPGAVPSNALTNPAPSKLPINSTRAGMVPSKVPTSMVLTKVSASTVPTDGSSRNEETPAAPTPAGATGGSSAWLDSSSENRGLGSELSKPGVLASQVDSPFSGCFEDLAISASTSLGMGPCHGPEENEYKSEGTFGIHVAENPSIQLLEGNPGPPADPDGGPRPQADRKFQEREVPCHRPSPGALWLQVAVTGVLVVTLLVVLYRRRLH
notes: MAVS (mitochondrion antiviral signaling adaptor), variant of ~50 kDa from internal translation initiation at codon 142; also called MAVS50-Flag; Flag-MAVS50
- binding result: binds
